Reference: paper PMC10391610, “Survivin prevents the polycomb repressor complex 2 from methylating histone 3 lysine 27” (iScience, 2023)

B1: SUZ12_(573-597) peptide (peptide)
peptide: PLRPQEMEVDSEDEKDPEWLREKTI
notes: suppressor of zeste 12 (SUZ12), residues 573-597; source: synthetic peptide, bought: Biomatik (purified to 95%)
B2: JARID2_(170-194) peptide (peptide)
peptide: PNSMVYFGSSQDEEEVEEEDDETED
notes: source: synthetic peptide, bought: Biomatik (purified to 95%)
B3: EZH2_(172-211) peptide (peptide)
peptide: VELVNALGQYNDDDDDDDGDDPEEREEKQKDLEDHRDDKE
notes: as for B2
B4: EED_(128-152) peptide (peptide)
peptide: SQGEIRLLQSYVDADADENFYTCAW
notes: embryonic ectoderm development (EED), residues 128-152; source: synthetic peptide, bought: Biomatik (purified to 95%)

Target: T1, survivin (His-tagged, from pHIS8) (human, UniProt O15392 1-142)
T1 construct: survivin, human, residues 1-142 (142 amino acids), called the full-length construct; plasmid pHis8-survivin obtained from the Verdecia lab (doi 10.1038/76838); The tag is detected by the anti-His antibody on the microarray; For NMR the protein was uniformly 15N labelled (M9 medium); For MST one copy was labelled with the GREEN-MALEIMIDE (cysteine reactive) dye; also called survivin_(1-142); …
Experiment: NMR titration; peptides titrated into [U-15N]-survivin (0.3 mM); 2D [15N,1H]-SOFAST-HMQC; NMR buffer (50 mM Tris, 150 mM NaCl, 1 mM DTT, pH 7.5), 298 K; global signal attenuation fitted with a logistic function (critical peptide concentration, cpc)
Conditions: both partners purified

T1 sequence (O15392 whole entry, the tested form may be a part): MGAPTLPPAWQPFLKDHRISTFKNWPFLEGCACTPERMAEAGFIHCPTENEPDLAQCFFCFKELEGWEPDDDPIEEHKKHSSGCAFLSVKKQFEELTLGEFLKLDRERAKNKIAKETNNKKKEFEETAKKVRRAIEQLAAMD

Row | Binder | NMR cpc (critical peptide concentration) [µM]
1 | B1 | 0.0066
2 | B2 | 0.0085
3 | B3 | 0.0021
4 | B4 | 0.0076
